Reference: the RNAGym collection of RNA variant scans (doi:10.7554/elife.90254)

B1: LINE1-full (parent)
chain: UACGUAGGUGGUUUUCCCCUGAUAGUGCUAAGGGGGCCUGGAAGUUUGGACUGGGCAGAGCUCAACACAGCGUGGCAAAGUGGCUGUGGCUAGACUGCCUCUCUGGAUUCCUCGUCACUCAGCAGGGCAUCUCUGAGAGAAAUGCC

Variants of: B1
Test: self-cleavage, relative activity (ratio to wild type); higher = more cleavage; in vitro, sequencing; the parent is a self-cleaving ribozyme

Row | Variant | self-cleavage
1 | UACGUAGGUGGUUUUCCCCUGAUAGUGCUAAGGGGGCCUGAACGUUUGGACUGGGCAGAGCUCAACACAGCGUGGCAAAGUGGCUGUGGCUAGACUGCCUCUCUGGAUUCCUCGUCACUCAGCAGGGCAUCUCUGAGAGAAAUGCC | 0.25
2 | UACGUAGGUGGUUUCCCCCUGAUAGUGCUAAGGGGGCCUGGAAGUUUGGACUGGGCAGAGCUCAACACAGCGUGGCAAAGUGGCUGUGGCUAGACUGCCUCUCCGGAUUCCUCGUCACUCAGCAGGGCAUCUCUGAGAGAAAUGCC | 1.86
3 | UACGUAGGUGGUUUUCCCCUGAUAGUGCUAAGGGGGCCUGGAAGUUUGGACUGGGCAGAGCUCAACACAGCGUGGCAAAGUGGCUGUGGCUAGACUGCCUCUCUGGAUUCCUCGUCACUCAGCUGGGCAUCCCUGAGAGAAAUGCC | 1.43
4 | UACGUAGGUGGUUUUCCCCUGAUAGUGCUAAGGGGGCCUGGAAGUAUGGACUGGGCAGAGCUCAACACAGCGUGGCAAAGUGGCUGUGGCUAGACUGCCUCUCUGGAUUCCUCGUCACUCAGCAGGGCAUCUCUGAAAGAAAUGCC | 0.98
5 | UACGUAGGUGGUUUUCCCCUGAUAGUGCUAAGGGGGCCUGGAAGUUUGGACUGGGCAGAGCUCAACACAGCGUGGCAGAGUGGCUGUGGCUAGACUGCCUCUCUGGAUUCCUCGUAACUCAGCAGGGCAUCUCUGAGAGAAAUGCC | 0.87
6 | UACGUAGGUGGUUUUCCCCUGAUAGUGCUAAGGUGGCCUGGAAGUUUGGACUGGGCAGAGCUCAACACAGCGUGGCAAAGUGGCUGUGGCUAGACUGCCCCUCUGGAUUCCUCGUCACUCAGCAGGGCAUCUCUGAGAGAAAUGCC | 1.5
7 | UACGUAGGUGGUUUUCCCCUGAUAGUGCUAAGGGGGCCUGGAAGUACGGACUGGGCAGAGCUCAACACAGCGUGGCAAAGUGGCUGUGGCUAGACUGCCUCUCUGGAUUCCUCGUCACUCAGCAGGGCAUCUCUGAGAGAAAUGCC | 1.13
8 | UACGUAGGUGCUUUUCCCCUGAUAGUGCUAAGGGGGCCUGGAAGUUUUGACUGGGCAGAGCUCAACACAGCGUGGCAAAGUGGCUGUGGCUAGACUGCCUCUCUGGAUUCCUCGUCACUCAGCAGGGCAUCUCUGAGAGAAAUGCC | 1.25
9 | UACGUAGGUGGUUUCCCCCUGAUAGUGCUAAGGGGGCCUGGAAGUUUGGACUGGGCAGAGCUCAACACAGCGUGGCAAAGUGGCUGUGGCUAGACUGCCUCUCUGGAUUCCUCGUCACUCAGCAGGGCAUCUCUGAGAGAAAGGCC | 2.03
10 | UACGUAGGUGGUUUUCCCCUGAUAGUGCUAAGGGGGCCUGGAAGUUUGGACGGGGCAGAGCUCAACACAGCGUGGCAAAGUGGCUGUGGCUAGUCUGCCUCUCUGGAUUCCUCGUCACUCAGCAGGGCAUCUCUGAGAGAAAUGCC | 0.42
11 | UACGUAGGUGGUUUUCCCCUGAUAGUGCUAAGGGGGCCUGGAAGUUUGGACUGGGCAGAGCUCAACACAGCGUAGCAAAGUGGCUGUGGCUAGACUGCCUCUCUGGAUUCCUCGUCACUCAGCAGGGCAUCUCCGAGAGAAAUGCC | 1.1
12 | UACGUAGGUGGUUUUCCCCUGAUAGUGCUAAGGGGGCCUGGAAGUUUGGACUGGGCAGAGCUCAACACAGCGUGGCAAAGUGGCUGUGGCUAGACUGCCUCUCUGGAUUCCUCGUCACUCAGCAGGGCAUCUCUGAGUGAAGUGCC | 0.93
13 | UACGUAGGUGGUUUUCCCCUGAUAGUGCUAAGGGGGCCUGGAAGUUUGGACUGGGCAGAGCUCAACACAGCGUGGCAAAGUGGCUGUGGCUAGACUGCCUCUCUGGAUUCCUCGUCACUCAGCAGGGCAUCUCUGAGAGAAAUACC | 1.23
14 | UACGUAGGUGGUUUUCCCCUGAUAGUGCUAAGGGGGCCUGGAAGUUUGGACUGGGCAGAGCUCAACACAGCGCGGCAAAGUGGCUGUGGCUAGACUGCCUCUCUGGAUUCCUCGUCACUCAGCAGGGCAUCUCUGAGAGAAAUACC | 1.77
15 | UACGUAGGUGGUUUUCCCCUGAUAGUGCUAAGGGGGCCUGGAAGUUUGGACUGGGCAGAGCUCAACACAGCGUGGCAAAGUGGCUGUGGCUAGACUGCCUCUCUGGAUUCCUCGUCACGCAGCAGGGCAUCUCUGAGGGAAAUGCC | 2.33
16 | UACGUAGGUGGUUUUCCCCUGAUAGUGCUAAGGGGGCCUGGAAGUUUGGACUGGGCAGAGCUCAACACAGCGUGGCAAAGUGGCUGAGGCUAGACUGCCUCUCUGGAUUCCUCGUCACUCAGCAGGGCAACUCUGAGAGAAAUGCC | 0.09
17 | UACGUAGGUGGUUUUCCCCCGAUAGUGCUAAGGGGGCCUGGAAGUUUGGACUGGGCAGAGCUCAACACAGCGUGGCAAAGUGGCUGUGGCUAGACUGCCUCUCUGGAUUCCUCGUCAGUCAGCAGGGCAUCUCUGAGAGAAAUGCC | 1.45
18 | UACGUAGGUGGUUUUCCCCUGACAGUGCUAAGGGGGCCUGGAAGUUUGGACUGGGCAGAGCUCAACACAGCGUGGCAAAGUGGCUGUGGCUAGGCUGCCUCUCUGGAUUCCUCGUCACUCAGCAGGGCAUCUCUGAGAGAAAUGCC | 0.37
19 | UACGUAGGUGGUUUUCCCCUGAUAGUGCUAAGGGGGCCUGGAAGUUUGGACUGGGCAUAGCACAACACAGCGUGGCAAAGUGGCUGUGGCUAGACUGCCUCUCUGGAUUCCUCGUCACUCAGCAGGGCAUCUCUGAGAGAAAUGCC | 0.02
20 | UACGUAGGUGGUUUUCCCCUGAUAGUGCUAAGGGGGCCUGGAAGUUUGGACUGGGCAGAGCUCAACACAGCGCGGCAAAGUGGCUGUGGCUAGACUGCCUCUUUGGAUUCCUCGUCACUCAGCAGGGCAUCUCUGAGAGAAAUGCC | 1.61
